B1: HD-5: epithelial member of the defensin family, host defense peptide (PeptaNova) (peptide, UniProt Q01523 20-94, looked up)
Defensin alpha 5: ESLQERADEATTQKQSGEDNQDLAISFAGNGLSALRTSGSQARATCYCRTGRCATRESLSGVCEISGRLYRLCCR

Experiments:
[1] = tested on: murine vaginal microbiota; assay: 16S-based metagenomics of cervico-vaginal lavage samples; type: in vivo, mouse; details: FVB/n mice treated (n=12) or not (n=8), subcutaneous implant 1-2 µg/24h, 12 weeks
Source text: FVB/n mice expressing HPV16 under the control of the keratin 14 promoter (K14-HPV16 transgenic mice) were obtained from the National Cancer Institute Mouse Repository. Given that (pre)cancer development within the lower genital tract has been previously shown to be hormone-dependent in this model[75],[76], 6 to 8-week-old female mice (n = 12 per condition) were subcutaneously implanted with a Belma’s E2 implant (E2-M/90, Belma Technologies, Liege, Belgium), allowing reproducible long-term release of 17β-estradiol (1–2 µg/24 h) for 90 days[77]. A similar procedure was performed with control (FVB/n) mice. […]
Mice were randomly distributed in cages and housed under standard conditions [12 h light/12 h dark cycle, ad libitum access to food and water, constant temperature (19–21 °C) and humidity (40–50%)] in the GIGA-Mouse facility platform (University of Liege) during the entire course of the study. […] Seven µl from each samples were spread on a glass slide, fixed/stained using Diff-Quick reagents (Medion Diagnostics, Düdingen, Switzerland) and the estrous cycle stage was determined using established criteria.
DNA was isolated from cervico-vaginal lavage samples using NucleoSpin Tissue kit (Macherey Nagel, Düren, Germany). […] Of note, 7 random nucleotides were added to the 5′ region of forward primer to increase complexity and, therefore, improve sequence read quality. […]

Gardnerella vaginalis = assay: Antimicrobial assay (surviving colonies, CFU count); type: cell-based; details: peptide 1–10 µg/ml, 5 × 10^4 CFU/ml, 10 mM sodium phosphate buffer, 6 h, 37 °C; plated on Columbia Blood agar; n = 5
Description: (§1) Bacterial strains Lactobacillus crispatus DSM 20356, Lactobacillus iners CIP 105923 and Garnerella vaginalis CCUG 43336 were kindly provided by the Department of Clinical Microbiology at University Hospital Center of Liege. Lactobacillus jensenii LMG 6414 was obtained from BCCM/LMG Bacteria Collection (University of Gent, Belgium). Log-phase bacteria were grown on Columbia agar with 5% sheep blood (Becton Dickinson, Franklin Lakes, NJ, USA) at 37 °C in a humidified CO2 atmosphere (Lactobacilli) or in anaerobic jars (G. vaginalis). To analyze the antimicrobial effect of innate peptides expressed by vaginal/cervical mucosa, 5 × 10^4 colony-forming unit (CFU)/ml were mixed with different peptides (concentration range: 1–10 µg/ml) in 10 mM sodium phosphate buffer (SPB) (final volume 100 µl) and incubated for 45 min to 9 h at 37 °C. Where indicated, the peptides were incubated with 2 mM dithiothreitol (DTT) (Invitrogen, Carlsbad, CA, USA) for 30 min at 37 °C before adding the bacteria. In indicated experiments, incubation was carried out in potassium phosphate buffer (KPB) (pH: 7.4, 10 mM). The following peptides were tested: HβD1 (PeptaNova, Sandhausen, Germany), HβD2 (PeptaNova), HβD3 (PeptaNova), HβD4 (PeptaNova), HD-5 (PeptaNova), HD-6 (PeptaNova), elafin (PeptaNova), S100A7 (Abnova, Taipei City, Taiwan) and SLPI (R&D Systems, Minneapolis, MI, USA). Bacterial suspensions were then plated on Columbia Blood agar plates for 24–48 h to determine CFU. High-resolution images for each condition were taken. Colony detection and counts were finally performed using ImageJ software (NIH, Bethesda, MD, USA) and verified by manual counting.

[2] = tested on: Lactobacillus crispatus DSM 20356; assay: as above; type: cell-based; details: peptide 1–10 µg/ml, 5 × 10^4 CFU/ml, 10 mM sodium phosphate buffer, 6 h, 37 °C; plated on Columbia Blood agar; n = 3
Description: as §1

[3] = tested on: Lactobacillus iners CIP 105923; assay: as above; type: cell-based; details: peptide 1–10 µg/ml, 5 × 10^4 CFU/ml, 10 mM sodium phosphate buffer, 6 h, 37 °C; plated on Columbia Blood agar; n = 3
Description: as §1

[4] = tested on: Lactobacillus jensenii LMG 6414; assay: as above; type: cell-based; details: peptide 1–10 µg/ml, 5 × 10^4 CFU/ml, 10 mM sodium phosphate buffer, 6 h, 37 °C; plated on Columbia Blood agar; n = 3
Description: as §1

Molecule	composition of murine vaginal microbiota (α- and β-diversity, richness, evenness) [1]	effect on bacterial growth/survival (percentage of surviving colonies) (Gardnerella vaginalis)	effect on bacterial growth/survival (percentage of surviving colonies) [2]	effect on bacterial growth/survival (percentage of surviving colonies) [3]	effect on bacterial growth/survival (percentage of surviving colonies) [4]
C[C@]12CC[C@@H]3c4ccc(O)cc4CC[C@H]3[C@@H]1CC[C@@H]2O [17β-estradiol]	not altered				
B1		inhibit the growth	inhibit the growth	inhibit the growth	inhibit the growth
